Experiment [1] deals with T1, Grb2 SH2 domain protein (Homo sapiens, UniProt P62993).
T1 construct: made in house
Briefly: Biosensor (Biacore S51 surface plasmon resonance) direct binding to chip-bound Grb2 SH2 domain protein. To be noted: binding affinity to Grb2 SH2 domain protein, complex binding kinetics. On the procedure:
Biosensor Analysis: Binding experiments were performed on a Biacore S51 instrument (Biacore Inc., Piscataway N.J.). All Biotinylated Grb2 SH2 domain proteins (b-Grb2) were expressed and purified (Protein Expression Laboratory and The Protein Chemistry Laboratory, SAIC—Frederick). The b-Grb2 was immobilized onto carboxymethyl 5′ dextran surface (CM5 sensor chip, Biacore Inc.) by amine coupling. The lyophilized b-Grb2 was reconstituted in fifty percent DMSO in H2O to make a stock solution of 1 mg/mL and stored at −80° C. A 1: 12.5 dilution of b-Grb2 was used for immobilization, by dilution in acetate buffer pH-5.0, with 5% DMSO. 1×PBS (phosphate buffered saline, pH 7.4) was used as the running buffer.
An immobilization wizard was used to optimize the immobilization target. For b-Grb2, 2500-5000 resonance units (RU) of protein were captured on the CM5 sensor chip. Small molecules were serially diluted in running buffer to the concentrations (1.25 nM-1500 nM) as indicated in each sensorgram and injected at 25° C. at a flow rate of 30 μL/min for 2 minutes. Varying concentrations of small molecules were injected in increasing concentrations, and every injection was performed in duplicate within each experiment. […]
On the technique in general: In SPR one partner is held on a chip, and binding of the other changes the refractive index at the surface.

Experiment [2] concerns the target Biotinylated Grb2 SH2 domain protein (UniProt P62993). As to the kind of experiment: SPR (Biacore S51), steady state, compound injected over immobilized b-Grb2 SH2 domain.

Like-named read-outs stand apart in the source and are kept apart here.

For orientation: Kd means the concentration at which binding is half-saturated.

T1 sequence (P62993 60-152 limits assumed): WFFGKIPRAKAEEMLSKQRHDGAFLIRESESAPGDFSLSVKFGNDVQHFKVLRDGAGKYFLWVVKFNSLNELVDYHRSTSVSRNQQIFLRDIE
Biotinylated Grb2 SH2 domain protein, sequence (P62993 60-152 limits assumed): as above

Consider `NC(=O)CC1NC(=O)C2(CCCCC2)NC(=O)[C@@H](CC(=O)O)[C@@H](c2ccc(CP(=O)(O)O)cc2)/C=C/CCC2(CCCCC2)CNC1=O` (some centres unmarked) [compound 24], for which the Kd in experiment [1] (first of two Kd values, read-out: Kd (complex binding kinetics, first value)) is 9.3 ± 0.1 nM; in experiment [1] (second of two Kd values, read-out: Kd (complex binding kinetics, second value)) it was 21300 ± 500 nM.

“Cyclo{[(2R,3R)-3-(4-dihydroxyphosphonomethyl)phenyl-2-(hydroxycarbonylmethyl)pent-4-enyl]-Ac6c-L-Asn-D-AllylGly}-(1-naphthyl)methyl amide (4) (peptide)” gave a Kd in experiment [2] of 54.9 nM.

Take “Cyclo{[(2R,3R)-3-(4-dihydroxyphosphonomethyl)phenyl-2-(hydroxycarbonylmethyl)pent-4-enyl]-Ac6c-L-Asn-L-AllylGly}-(1-naphthyl)methyl amide (3) (peptide)”: in experiment [2], the dissociation constant Kd was determined as 22.7 nM.

“[(2R)-3-(4-Dihydroxyphosphonomethyl)phenyl-2-(hydroxylcarbonylmethyl)propionyl]-Ac6c-L-Asn-Gly-(1-naphthyl)methyl amide (2) (peptide)” had a Kd in experiment [2] of 5610 nM.

(Values after patent US20080139456A1, “Macrocyclic Sh2 Domain Binding Inhibitors” (priority 2005, published 2008).)
